Here are results for three molecules from article doi:10.1101/2022.11.03.514279 (bioRxiv, 2022).

Usually stoichiometry N stands for the number of molecules, sites or subunits per partner or assembly.

B2: pVII (f1 phage minor capsid protein) (natural protein, f1 filamentous phage, UniProt P69534 1-33, looked up)
chain: MEQVADFDTIYQAMIQISVVLCFALGIIAGGQR

Data set [1] concerns the target B2. Briefly: cryo-EM structure.
Data set [2] deals with the molecule itself. As to the kind of experiment: cryo-EM structure.

As to MSVLVYSFASFVLGWCLRSGITYFTRLMETSS (natural protein, f1 filamentous phage, UniProt P69537 1-32, looked up) [pIX (f1 phage minor capsid protein)], the binding result in data set [1] is listed as “binds”.

B1: pVI (f1 phage minor capsid protein) (natural protein, f1 filamentous phage, UniProt P69531 1-112, looked up)
chain: MPVLLGIPLLLRFLGFLLVTLFGYLLTFLKKGFGKIAIAISLFLALIIGLNSILVGYLSDISAQLPSDFVQGVQLILPSNALPCFYVILSVKAAIFIFDVKQKIVSYLDWDK
Regarding B1, the “stoichiometry N” value in data set [2] was determined as 5.
B2: in data set [2], the “stoichiometry N” value amounted to 5.
